Experimental data from US20250000944A1, “USE OF RECOMBINANT CALRETICULIN IN HAIR GROWTH, HAIR BREEDING, HAIR PROTECTION OR ANTI-HAIR LOSS AND RELATED PRODUCT” (BEIJING YITUBAIHUI BIOTECH CO., LTD, priority 2021, published 2025).
Entries after “also recorded” stand apart in the source; their conditions may differ.

Key:
[1] = system: androgenic alopecia model; assay: First experiment: testosterone-induced androgenic alopecia model, hair observed by dermatoscope and scanning electron microscopy; assay type: in vivo, C57BL/6 male mice; settings: 21 days, proteins 0.21 mg/ml injected on the back once a day, minoxidil 5% external, finasteride 13 μg/mL; for changes in hair observed by dermatoscope: compared with the model group (frizzy hair)
Method: Experimental animals: C57BL/6 male mice, 6-7 weeks old, weighing (20±2) g, were provided by Beijing Vital River Laboratory Animal Technology Co. Ltd., with the animal license number of SCXK (Beijing) 2021-0006. They were kept in a 12 h light/12 h dark environment, with free access to food and water. The mice were divided into normal NC group (NC), model group (Model), positive control-minoxidil group (Minoxidil), positive control-finasteride group (Finasteride), experimental group A and experimental group B. The proteins were stored in a −70° C. refrigerator and diluted with physiological saline when used. Experimental group A used rh-CRT-1, with a concentration of 0.21 mg/ml. Experimental group B used rh-CRT-2, with a concentration of 0.21 mg/ml. There were 6 mice in each group.
The main reagents used are as follows: 4% paraformaldehyde (Beijing Solarbio Technology Co., Ltd., China), isoflurane (Rayward, China), testosterone (Shanghai Standard Biotechnology Co., Ltd., China), paraffin sectioner (Thermo, USA), small animal anesthesia machine (Rayward, China), and inverted microscope (Olympus, Japan).
Modeling and drug administration: First, the androgenic alopecia model was established. One day before the modeling, the hair in the central part of the back of the experimental animal was removed with a skin preparation knife, and the prepared area was depilated with a depilatory cream. After 24 hours of depilation, the modeling agent (testosterone, 5.0 mg/mL) was subcutaneously injected into the neck of the mice in groups except the NC group, with a total dose of 0.2 mL/mouse. The mice in the NC group were injected with an equal amount of normal saline. After modeling, the mice were administrated with drugs. The NC group was injected with normal saline once a day, 0.15 mL/mouse each time. The experimental group A, experimental group B and positive control group were injected with modeling agent (testosterone), and administrated with drugs after 2 hours, and the dose of modeling agent was 0.2 mL/mouse. The experimental group A and experimental group B were injected on the back once a day, 0.15 mL/mouse each time. The positive control minoxidil group was applied 5% minoxidil externally, 0.01 mL/mouse, once a day. The positive control finasteride group was applied finasteride at a concentration of 13 μg/mL, 0.2 mL/mouse, once a day.

[2] = system: mice with androgenic alopecia; assay: Second experiment: testosterone hair loss model, hair growth, skin blackness, scanning electron microscopy and hair follicle count; assay type: in vivo, C57BL/6 male mice; settings: for hair growth on the back skin: 17th day, 0.15 mL/mouse once a day; for blackness of the back skin (color tester): Day 17; for blackness of the back skin (color tester) / number of hair follicles (pathological section): P<0.01
Method: Experimental animals: C57BL/6 male mice, 6-7 weeks old, weighing (20±2) g, were provided by Beijing Vital River Laboratory Animal Technology Co. Ltd., with the animal license number of SCXK (Beijing) 2021-0006. They were kept in a 12 h light/12 h dark environment, with free access to food and water. The mice were divided into normal control group (normal group, NC), model group (Model), experimental group C (rh-CRT-2, with a concentration of 0.35 mg/ml) including an injection group and an external application group, experimental group D (rh-CRT-3, with a concentration of 0.21 mg/ml) including an injection group and external application group, and positive control-minoxidil group (Minoxidil). The proteins were stored in a −70° C. refrigerator and diluted with physiological saline when used. There were 6 mice in each group.
Modeling and drug administration: First, the hair loss model was established. One day before the modeling, the hair in the center of the back of the experimental animal was removed with a skin preparation knife, and the prepared skin area was depilated with a depilatory cream. After 24 hours of depilation, the normal control group was given 75% ethanol, and other groups were injected with testosterone solution (5 mg/mL) prepared with 75% ethanol, 0.01 mL/mouse. Two hours later, the injection groups of experimental group C and experimental group D were injected on the back, 0.15 mL/mouse, once a day, for 17 consecutive days; the external application groups of experimental group C and experimental group D were applied on the back, 0.15 mL/mouse, once a day, for 17 consecutive days. The normal control group and the model group were externally applied with physiological saline, once a day, 0.15 mL/mouse, for 17 consecutive days. During the drug administration process, except for the normal control group, all other groups were injected with the modeling agent (testosterone), and administrated with drugs after 2 hours. […] After the experiment, the mouse skin was pathologically sectioned as follows: The skin pathological tissue was fixed in 4% paraformaldehyde, trimmed, dehydrated and transparent, and then embedded. The slices were cut with a thickness of 6 μm using a paraffin slicer, and further dewaxed, stained, dehydrated, transparent and sealed. The hair follicles in different areas were observed under an optical microscope, and the number of hair follicles was statistically analyzed.
Scanning electron microscopy observation: At the end of the experiment, hair shafts were randomly plucked from the newly formed hair area on the back of each group of mice. Three mice were selected from each group. The plucked hair shafts were fixed and the changes of hair shafts and hair cuticles were observed by scanning electron microscopy.
Statistical analysis: All data were processed using SPSS 17.0 software. One-way ANOVA was used for comparisons among multiple groups. Data were expressed as mean±standard deviation (x±s). P<0.05 was considered statistically significant, and P>0.05 was not considered statistically significant.

[3] = system: AGA (androgen alopecia) model mice; assay: Fourth experiment: hair growth score in DHT-induced AGA model mice; assay type: in vivo, C57BL/6N male mice; settings: Day 17; for hair growth score compared with the Model group: external application 100 μL, CRT 0.35 mg/ml, MNX 5 mg/ml
Method: The experimental animals were the same as in the third experiment.
The AGA model was established in the same manner as the third experiment, and the administration was carried out as follows: The AGA model was established by injecting dihydrotestosterone into the experimental mice. Dihydrotestosterone (DHT) solution was injected subcutaneously at multiple points every day, 100 μL/mouse (5 mg/kg body weight), and then the drug was administered after 3 h of absorption. CRT-3 and CRT-1 protein solutions were applied externally. 100 μL of protein solution was applied, and 100 μl of minoxidil MNX was applied. The solvent formula comprised 50% ethanol, 20% propylene glycol, and 30% pure water.
The scoring criteria and scoring process were the same as those in the third experiment.

[4] = system: AGA (androgenic alopecia) model mice; assay: Third experiment: hair growth score in DHT-induced AGA model mice; assay type: in vivo, C57BL/6N male mice; settings: Day 17
Method: C57BL/6N male mice, 6-7 weeks old, weighing (18-20) g, 50 mice, with the animal license number of SCXK (Beijing) 2021-0006, were kept in a 12 h light/12 h dark environment, with free access to food and water. Adaptive feeding was performed for about 1 week.
The hair in an area of about 2 cm×3 cm at the border of the spine was shaved using an electric shaver. The depilatory area was applied with 8% sodium sulfide solution. After 90±10 s, the depilatory area on the back was cleaned with cotton balls dipped in water, the residual sodium sulfide was washed away with a washing bottle, and then the mice were wiped dry. Because the hair follicle cycle of mice was in the resting phase at this time, the mouse skin was pink. Mice were randomly divided into groups using Excel software, 10 mice in each group, and the modeling was established after 24 h and the drug was administered for 17 consecutive days. The AGA model was established by injecting dihydrotestosterone into the experimental mice. Dihydrotestosterone (DHT) solution was injected subcutaneously at multiple points every day, 100 μL/mouse (5 mg/kg body weight), and then the drug was administered after 3 h of absorption. CRT-2 and CRT-1 protein solutions were applied externally. 100 μL of protein solution was applied, and 100 μl of minoxidil MNX was applied. The CRT and MNX combination group was first applied with CRT-2 protein solution and then MNX 2 hours later. The solvent formula comprised 50% ethanol, 20% propylene glycol, and 30% pure water.
Scoring was based on the coverage of hair growth: • 0 points: no hair growth, pink in the hair removal area; • 1 point: gray in the hair removal area, hair coverage area E<20%; • 2 points: black in the hair removal area, hair coverage area 20%<E<40%; • 3 points: black in the hair removal area with a little hair growth, hair coverage area 40%<E<60%; • 4 points: black in the hair removal area with some hair growth, hair coverage area 60%<E<80%; • 5 points: black in the hair removal area, hair coverage area 80%<E<100%.
The skin color changes of mice were observed before administration every day. The hair removal time of mice was designated as Day 0, the first day of administration was designated as Day 1, and so on. The hair growth of each mouse was recorded and analyzed on Day 7, Day 9, Day 11, Day 13, Day 15, and Day 17.

[5] = external application group, compared with the model group
[6] = injection group, compared with the model group

Molecule | changes in hair observed by dermatoscope [1] | hair cuticles observed by scanning electron microscopy [1] | hair growth on the back skin ([2]; external application group) | hair growth on the back skin ([2]; injection group) | blackness of the back skin (color tester) [2, 5] | blackness of the back skin (color tester) [2, 6] | hair cuticles under scanning electron microscopy [2, 5] | hair shafts under scanning electron microscopy [2, 5] | number of hair follicles (pathological section) [2, 5] | hair cuticles under scanning electron microscopy ([2]; injection group) | hair shafts under scanning electron microscopy ([2]; injection group) | number of hair follicles (pathological section) [2, 6] | hair growth score compared with the Model group ([3]; P<0.05) | hair growth score compared with the CRT-1 group ([3]; external application, P<0.05) | hair growth score compared with the Model group ([4]; external application 100 μL, CRT 0.35 mg/ml, MNX 5 mg/ml, P<0.05) | hair growth score compared with MNX ([4]; external application, P>0.05) | hair growth score compared with MNX ([3]; external application, P>0.05)
CC(C)(C)NC(=O)[C@H]1CC[C@H]2[C@@H]3CC[C@H]4NC(=O)C=C[C@]4(C)[C@H]3CC[C@]12C [finasteride, reference compound] | smooth hair | arranged neatly | – | – | – | – | – | – | – | – | – | – | – | – | – | – | –
CRT-3: fragment (1-291 aa) of recombinantly expressed CRT, amino acid sequence SEQ ID NO: 12 (protein) EPAVYFKEQFLDGDGWTSRWIESKHKSDFGKFVLSSGKFYGDEEKDKGLQTSQDARFYALSASFEPFSNKGQTLVVQFTVKHEQNIDCGGGYVKLFPNSLDQTDMHGDSEYNIMFGPDICGPGTKKVHVIFNYKGKNVLINKDIRCKDDEFTHLYTLIVRPDNTYEVKIDNSQVESGSLEDDWDFLPPKKIKDPDASKPEDWDERAKIDDPTDSKPEDWDKPEHIPDPDAKKPEDWDEEMDGEWEPPVIQNPEYKGEWKPRQIDNPDYKGTWIHPEIDNPEYSPDPSIYAY | – | – | promoted hair growth | promoted hair growth | significantly increased | significantly increased | dense | became thicker | significantly promoted | dense | thin | significantly promoted | significantly higher; also recorded: significantly increased | better than; also recorded: significantly increased | – | – | –
CRT-1: recombinantly expressed full-length CRT (1-400 aa), amino acid sequence SEQ ID NO: 1, expressed in Pichia pastoris (protein) EPAVYFKEQFLDGDGWTSRWIESKHKSDFGKFVLSSGKFYGDEEKDKGLQTSQDARFYALSASFEPFSNKGQTLVVQFTVKHEQNIDCGGGYVKLFPNSLDQTDMHGDSEYNIMFGPDICGPGTKKVHVIFNYKGKNVLINKDIRCKDDEFTHLYTLIVRPDNTYEVKIDNSQVESGSLEDDWDFLPPKKIKDPDASKPEDWDERAKIDDPTDSKPEDWDKPEHIPDPDAKKPEDWDEEMDGEWEPPVIQNPEYKGEWKPRQIDNPDYKGTWIHPEIDNPEYSPDPSIYAYDNFGVLGLDLWQVKSGTIFDNFLITNDEAYAEEFGNETWGVTKAAEKQMKDKQDEEQRLKEEEEDKKRKEEEEAEDKEDDEDKDEDEEDEEDKEEDEEEDVPGQAKDEL | smoother | arranged neatly | – | – | – | – | – | – | – | – | – | – | significantly higher | – | significantly higher | no significant difference | no significant difference
